assay: soluble on expression in E. coli; label from the status in PepcDB or PDB records

Row | Sequence | soluble on expression in E. coli
1 | EKDKYALALKDKGNQFFRNKKYDDAIKYYNWALELKEDPVFYSNLSACYVSVGDLKKVVEMSTKALELKPDYSKVLLRRASANEGLGKFADAMFDLSVLSLNGDFNDASIEPMLERNLNKQAMSKLKEKFGDIDTATATPTELSTQPAKERKDKQENLPSVTSMASFFGIFKPELTFANYDESNEADKELMNGLSNLYKRSPESYDKADESFTKAARLFEEQLDKNNEDEKLKEKLAISLEHTGIFKFLKNDPLGAHEDIKKAIELFPRVNSYIYMALIMADRNDSTEYYNYFDKALKLDSNNSSVYYHRGQMNFILQNYDQAGKDFDKAKELDPENIFPYIQLACLAYRENKFDDCETLFSEAKRKFPEAPEVPNFFAEILTDKNDFDKALKQYDLAIELENKLDGIYVGIAPLVGKATLLTRNPTVENFIEATNLLEKASKLDPRSEQAKIGLAQMKLQQEDIDEAITLFEESADLARTMEEKLQAITFAEAAKVQQRIRSDPVLAKKIQET | soluble
2 | MAMIHEMILDGKVVRYRVVEKPVKYVTLRVLEDGTILVVTPLEQIVREVLIKKKDWILSKISIVEEAKELSRKGFPLFGKFYSLEMGEKFEINREELRITFPGIEFLRNWIKREIKRKAREIAKDFGISPKRIYVKAMRTKWGSATWRKSITLNFSSAALPEELFHYLVIHELAHLIELNHSKRFWSLVASYHPDYKKKRRELKKWWFIVHSNETWRAILQWPEGLEHHHHHH | soluble
3 | SKLVYRNLARNGPGSVKLVPEEEDDLWHAYNLIVPGDTLQSVTVRKVLREMASGGRDAERVRLKLEIVVESVDYDKEGSVLRVRGKNITENDHVKIGQFHTVELELKRQFTLTKELWDWLALDTIQQACDPTASADLAVILMQEGLAHLFLIGRSITVTRARIETSIPRKHGPAIAGYESALKKFFEHVLQVNEKCFLKEMIILMKPIWTDALLNLPTGFPEAY | soluble
4 | MKETEQVSEAPHGLEGAWLDLTNRVRVSGDTVEACSAFSIGPPRCRWLLQATDRGVNCAALDHYVPHICGTHTETVYHIAHHRYIKRAVCEIPFFRFHKARIQVCTAKIACTEQVLPSADTDYPCLEPNDLIVGPSALNRAPRYTRAQDSTIEALILIVVGPDGTSDWRDGKLDDRPPYLTPAAIESLATRYPNMRHLLTNLPSVDRRRDGGLVRSHRAFFATDFAGDGTPSESPQKTITELLRVPPDWQLYDDAEGVVCISLAPIEGLDAIPSSVYFKSH | not soluble
5 | MRKILVVGAGQSGLQLALGLQSHGYEVTLMSNRTADEIRTGRVMSTQCMFHTALQHERDLQLNFWESQAPKIEGLGVSVAAPGSFDPGPSQRAIDWLGHLDGFAQSVDQRVKMAGWMETFAQRGGQLVIHGAAVGDLDYFSRAYDLVLVSAGKGELVQMFGRDAERSPYSEPQRALAVAYVHGMGPRPEHPETEAVRCNLVPGVGEMFIMPTFTTSGRADILFWEGIPGGPLDAFKDVKDPAEHLSLTLELMEKFLPWEYARATKVELTDAGGTLAGRYAPTVRNPVGRLPGGGAVLGVADVVVANDPITGQGSNSASKCAASYLASIIEHGDQEFDETWMRQTFDRYWETAQHVTKWTNTMLAPPPEHILNLFGAATQLQPIADRFANGFNDPSDFENFFYDPAKTEGYLAEVSGAAGALEHHHHHH | not soluble
6 | GMSIYNSIGKQYSQTRVPDIRIVNAIINLLNLPKGSVIADIGAGTGGYSVALANQGLFVYAVEPSIVMRQQAVVHPQVEWFTGYAENLALPDKSVDGVISILAIHHFSHLEKSFQEMQRIIRDGTIVLLTFDIRLAQRIWLYDYFPFLWEDALRFLPLDEQINLLQENTKRRVEAIPFLLPHDLSDLFAAAAWRRPELYLKAEVRAGISSFALANQDLVEKGLELLTADLNNGEWIRKYGEIHHLQEIDIGYRFIYTTLDK | soluble
7 | MGSDKIHHHHHHMQPNPTLDQLQIFVAVADSGSFSAAGRKLNRAQSVISYGIANLEAQLGLKLFEREGTREPQLTEIGRSMLEDARRMIGVLQRMRSRVDGHHHGLEAEVALSVDAALPSPVLVRVLKAFEAQFPTVMLRLHIGSLGLIPDHVVSGQADLGIGGLLGDVDVHLVRIGFMSIVLAAAPSHPLALLPKPLAIEDVREHTQLVVTDQSERTKGRDFGVFAYRTWRLTDMRTKHMLMREGLGWGGLPRWLIADDLVNGRLVELDLEPFSEVKSPMFAMHRNDSSPKPAAAWLIERFKRGLGCFNEFEPGEVPEDEPETIRQSAP | not soluble
8 | MGSDKIHHHHHHMFRVVICDDEKIQRSILKEFTEKLLSERCLNYQILEFSCGEDLISKYPEKIDIIFLDIQMKDINGIEVAKKIRKFDEKVEIIFTTAFSEYAPQGYEVRAYRYLVKPIEYSNFAMGVNLCIDNLQRKKERYIVLNSKKGFNRILIDSILYVETVKRDLVVHTIGRDYKANMSMKQAEKLLCENGFFRCHTSFIVNLRRIEDLRDNMITINEQFIPISKYRLKDLKVALTSLLCDIMY | not soluble
9 | MDLEPIFLTPVFQERIWGGTKLAERFGYDIPSSQTGECWAVSAHPHGQTVVARGPFAGMTLGQLWEERRDLFGHFPSDRFPLLTKILDANADLSVQVHPDDEYAKTHEGGELGKTECWYIIDCKPGAKLIYGHYAETKGELRAMMEAGEWDRLLRKVPIRPGDFFYVPSGTIHALCEGTLVLETQQSSDTTYRVYDYDRVDSQGRKRELHLEKAIDVTTVPHRDIDVHPHVAEFPGATVTTFVEGDYFGVQKWDVHDAFASEQTKPFLIVSILKGEGELVHHERIYAIRQGDHFILPHQFGRFTIRGMLEAIASWPRAGK | not soluble
10 | MGSDKIHHHHHHMDINFEYYKIFYYVAKYCNFTKAARALGNSQPNVTRAMNNLEQQINSILFIRNNRGVQLTPEGERLYAHVSAAMSQILAAEEELSDSIGLSHGSVSIGASETALNIYLLDRLKPFHMAYPGIRLKIYNHSTPQAINAVKNGMIDFAVVSTPAEVEAPLKMIKLGSFQEILVGGTTFTALGSQTLSLKELHNYPLIGLGRETMTFQFFNRLFMSHGLEFAPDTETATTDQILPLVKSELGLAFMPKPMAEAAIANREIVEIALEEEIPQRNICMVYDIHQPISAAARELKKVISDSHKV | not soluble
11 | MVSNSSITFKEFVDYWFEAYASTAVKPSTQKRYRQLLKPALRAIGNKPLNKVKPLDIQNIYIALAGTQSNCTILKLHRLLHEIFKHAQMWEYISDNPVKKVVPPTPEKKVFDLEHHHHHH | not soluble
12 | MGSDKIHHHHHHMSMVEEKFKKLGVENAPGQELLQKGVKLDLKGEKILGEKIDFSHGDVDAHKPLPNSLELFIEGFNKGGIQAYTEYKGNKEIREYIAGKLSEYIKMNIPADNLIITPGTQGALFLATGSLITRGTKVSIVEPDYFANRKLVEFFEGEIVPIELDYFNVNEKKAGLNLKQLEEAFKSGVELFLFSNPNNPTGVIYSDEEITEIARLVNKYNVTVIADELYSRQIFDNREFYHLITKNINQDKLITIIGPSKTESLSGFRLGIAYGSPTIIKRMEKLQAITTLRTAGYNQAVLKSWFSEPDGFMKDRIEKHQAIRDNLIEKFKTIDGIKIRKTEAGSYIFPTLPELEVNLGDFVKILRIYANVIVTPGTEFGKSFINSIRLNFSQDEKKAAEGVDRILEMIRRYKK | not soluble
13 | MSLGKKDKRWVLQRKNDHYYNLAKKRNYRSRATYKLFQLNEKFNLIKERNVVVDLGCAPGGWLQAARDIVGDKGFIVGIDLQTVKPLPYENVIAIKGDMTKEEILKQARDLLPEKPDVIICDASPNISGVWDVDHARSLELTTMALMTATKMLKKGGNFVVKVFQGDLFEKYVQLVSEYFDKAFTTKPRASRDESAEVYVIGKRFNGRKFDMNSKSPIVKLLDTNPKENEITSPSLRKDISKEDSGLMIKRIKEMRSKKEGHHHHHH | soluble
14 | GPGSMLPHSQPLVLPMEPSNWAVMPPTGVEMPMEPGTFEDISTAGWIGPRRRSFCGPQTEEEWEDLMIHRSSLRRESGQGTGVGLSGSGCLLGTDDPDRDVLCEYYGDMANRDEKVLSCGLRGQEGRRVLGNKPLRQRPNGPMRERTNYGSLASRRQRVMEEGGVWGDVEVCCVPVEPWHPMDMVCLGEERPEDVCVLRQTDTELYGTGRAFATDGKP | not soluble
15 | GPLGSPEFPHPLQDSWSYYLFQFRKALDWDECLEKVATFSTIEDFWSVLTHTVRPREITYGKDLYMFKSDIMPKWEDPKNENGGRWLINVTARQDVDFLWDELLMLLIGSDWDTDEEDRQICGAVFQPRSRGSKLSVWLTSDNEEETILSIGRRIKERLELEDTIYFQPVSDQRSQTRGSDICTGKYEI | soluble
16 | AQPDIKFASKEYGVTIGESRIIYPLDAAGVMVSVKNTQDYPVLIQSRIYDENKEKESEDPFVVTPPLFRLDAKQQNSLRIAQAGGVFPRDKESLKWLCVKGIPPKDEDIWVDDATNKQKFNPDKDVGVFVQFAINNCIKLLVRPNELKGTPIQFAENLSWKVDGGKLIAENPSPFYMNIGELTFGGKSIPSHYIPPKSTWAFDLPKGLAGARNVSWRIINDQGGLDRLYSKNVTL | soluble
17 | MGSDKIHHHHHHMPDNPTIATLPDSQGHNHRADVQLNQLQCDSTKPNDIRPNAIMPSAIEPNAIKHESVVAEQKQKVIFIGLPRTGTTSVSVALLEQGLKVAHMAFTKAAFMQADAISDAPCFSDFKQLDKLFPDAKFVYIERELDSWVPSMQMLLSRMLPHLDAKSGRFHPIMKRSFRHSFGVGVVENPQDEQHLIDCYQRHKTEVVNYFAGRHDLLCIDVSQQGALGQLLAFMGLAATENQQNFPKLNVGRNVASWDEYKHPNKISANASGPDKRKFFDYKI | not soluble
18 | MSYNEKSEAIIKEEWLQRLEQFPFKQADMNRLIMNYLVTEGFKEAAEKFQHEADLEPSVELSSLDGRILIREAVQAGRIEEATQLVNQLHPELLGSDRYLFFHLQQLQLIELIRAGKVEEALSFAQSKLSESGEEAMFELERTLALLAFEKPQESPFADLLEQSYRQKIASELNSAILRCEQSEDSTPKMMFLLKLILWAQSKLDSRSISYPKMKNLETAHLEPKLEHHHHHH | not soluble
19 | GPGSMPIKAVVTDLDGTLLDPQHCISNYAAEVLKKIKEKGICFIVATGRPYAEVFNRIRHCHLAPDYIITSNGARIHDGAFNVVREHNLRPELVESLARVRTVKDPATGAELPKKFTTNIYRGAEWLTDKSIPEVSKAFHTDFQCTDLRERFYELQASELGDVHEIWFAGDHDELVLLDNALREKYPGDLCCTFSLPHLLDCVPAGVNKGNGVREAAEMLGLALDEVACFGDGMNDESMLQVTSTSFIMANAQQRLKDAVPHAQIIGSNADDGVAKKLEEMFFSA | soluble
20 | MKMTVVGFWGGFPEAGEATSGYLFEHDGFRLLVDCGSGVLAQLQKYITPSDIDAVVLSHYHHDHVADIGVLQYARLITSATKGQLPELPIYGHTFDENGFHSLTHEPHTKGIPYNPEETLQIGPFSISFLKTVHPVTCFAMRITAGNDIVVYSADSSYIPEFIPFTKDADLFICECNMYAHQEAAKAGHMNSTEVASIAKDANVKELLLTHLPHTGNPADLVTEAKQIFSGHITLAHSGYVWNS | soluble
21 | SNAMSVQTIERLQDYLLPEWVSIFDIADFSGRMLRIRGDIRPALLRLASRLAELLNESPGPRPWYPHVASHMRRRVNPPPETWLALGPEKRGYKSYAHSGVFIGGRGLSVRFILKDEAIEERKNLGRWMSRSGPAFEQWKKKVGDLRDFGPVHDDPMADPPKVEWDPRVFGERLGSLKSASLDIGFRVTFDTSLAGIVKTIRTFDLLYAEAEKGS | soluble
22 | MFPSFITHIQSPNSHHHYSSPSFPFSSDFLESFDESFLINQFLLQQQDVAANVVESPWKFCKKLELKKKNEKCVDGSTSQEVQWRRTVKKRDRHSKICTAQGPRDRRMRLSLQIARKFFDLQDMLGFDKASKTIEWLFSKSKTSIKQLKERVAASEGGGKDEHLQVDEKEKDETLKLRVSKRRTKTMESSFKTKESRERARKRARERTMAKMKMRLFETSETISDPHQETREIKITNGVQLLEKENKEQEWSNTNDVHMVEYQMDSVSIIEKFLGLTSDSSSSSIFGDSEECYTSLSSVRGTISAAGNSNVLTKNPN | not soluble
